Data reported in patent US20070105779A1, “Isolated, ssx-2 and ssx-2 related peptides useful as hla binders and ctl epitopes, and uses thereof” (priority 2002, published 2007).

Legend:
HLA-A2 [1] = experiment: functional competition vs tyrosinase 368-376 on T2 cells; relative to SEQ ID NO: 17
HLA-A2 [2] = experiment: functional competition vs tyrosinase 368-376 on T2 cells, readout lysis by CTL LAU 156/34; 50% inhibition
HLA-A2 [3] = experiment: functional competition vs tyrosinase 368-376 on T2 cells, readout lysis by CTL LAU 156/34; relative to SEQ ID NO: 1

| Binder | Relative binding (HLA-A2 [1]) | IC50 (HLA-A2 [2]) [nM] | Relative binding (HLA-A2 [3]) |
| --- | --- | --- | --- |
| AAGPKIFYA (modifications not checked) [… (SEQ ID NO: 2)] | 0.7 | 286 | 0.07 |
| AAAPKIFYA (modifications not checked) [… (SEQ ID NO: 1)] | 10 | 20 | 1 |

Results, then the binder that gave them:

| Relative binding (HLA-A2 [1]) | IC50 (HLA-A2 [2]) [nM] | Relative binding (HLA-A2 [3]) | Binder |
| --- | --- | --- | --- |
| 1.5 | 133 | 0.16 | AAAAKIFYA (modifications not checked) [… (SEQ ID NO: 3)] |
| 9 | 22 | 0.9 | AAAPAIFYA (modifications not checked) [… (SEQ ID NO: 4)] |
| 1 | 200 | 0.1 | AAAPKAFYA (modifications not checked) [… (SEQ ID NO: 5)] |
